Results: US20230357354A1, “CD38-BINDING CD31 PEPTIDES AND USES THEREOF” (ENCEFA, priority 2020, published 2023)

molecular target: recombinant His-tagged CD38 (Homo sapiens, UniProt P28907); experiment: Pepscan-based ELISA of His-tagged CD38 on CD31 peptide arrays; format: binding; conditions: mimic type BET (β-turn mimic, mP2 CLIPS); sample with the highest signal
Excerpt: Different sets of sCD31 peptides were synthesized according to the following designs. Note that actual order of peptides on mini-cards in some was randomized. • Set #1 • Mimic type: linear • Label: LIN15 • Linear peptides of 15 consecutive amino acid residues in length, derived from the target sequence of sCD31 with an offset of […]. • Set #2 • Mimic type: single loop (mP2 CLIPS) • Label: LOOP7 • Constrained peptides of 9 amino acid residues in length. On positions 2-8 are incorporated 7 consecutive amino acid residues derived from the target sequence of sCD31 with an offset of 1.3 residues. Cys residues were inserted on positions 1 and 9 and joined by mP2 CLIPS in order to create a loop mimic. Native Cys residues, if present, were replaced by Ser residues. • Set #3 • Mimic type: single loop, (mP2 CLIPS) • Label: LOOP15 • Constrained peptides of 17 amino acid residues in length. On positions 2-16 are incorporated 15 consecutive amino acid residues derived from the target sequence of sCD31 with an offset of […]. Cys residues were inserted on positions 1 and 17 and joined by mP2 CLIPS in order to create a loop mimic. Native Cys residues, if present, were replaced by Ser residues. • Set #4 • Mimic type: β-turn peptide mimics (mP2 CLIPS) • Label: BET • β-turn peptide mimics of 22 amino acid residues in length. On positions 2-21 are incorporated 20 consecutive amino acid residues derived from the target sequence of sCD31 with an offset of 1.3 residues. Residues on positions 11 and 12 are replaced by a Pro-Gly motif in order to induce the β-turn formation. Cys residues were inserted on positions 1 and 22 and joined by mP2 CLIPS in order to stabilize the mimic. Native Cys residues, if present, were replaced by Ser residues.
To reconstruct epitopes of sCD31, a library of peptide-based peptide mimics was synthesized using Fmoc-based solid-phase peptide synthesis. An amino functionalized polypropylene support was obtained by grafting with a hydrophilic polymer formulation, followed by reaction with t-butyloxycarbonyl-hexamethylenediamine (BocHMDA) using dicyclohexylcarbodiimide (DCC) with N-hydroxybenzotriazole (HOBt) and subsequent cleavage of the Boc-groups using trifluoroacetic acid (TFA).
Standard Fmoc-peptide synthesis was used to synthesize peptides on the amino-functionalized solid support by custom modified JANUS liquid handling stations (Perkin Elmer).
Synthesis of structural mimics was done using CLIPS technology. CLIPS technology allows to structure peptides into single loops, double loops, triple loops, sheet-like folds, helix-like folds, and combinations thereof. CLIPS templates are coupled to cysteine residues. The side-chains of multiple cysteines in the peptides are coupled to one or two CLIPS templates. For example, a 0.5 mM solution of the P2 CLIPS (2,6-bis(bromomethyl)pyridine) is dissolved in ammonium bicarbonate (20 mM, pH 7.8)/acetonitrile (1:3, v/v). This solution is added onto the peptide arrays. The CLIPS template binds to side-chains of two cysteines as present in the solid-phase bound peptides of the peptide-arrays (455 wells plate with 3-µL wells). The peptide arrays are gently shaken in the solution for 30 to 60 minutes while completely covered in solution.
Finally, the peptide arrays are washed extensively with excess of H2O and sonicated in disrupt-buffer containing 1% SDS / 0.1 % 2,2′-(ethylenedioxy)diethanethiol in PBS (pH 7.2) at 70° C. for 30 minutes, followed by sonication in H2O for another 45 minutes.
The binding of the sample (recombinant His-tagged CD38; 9 µg/mL and 20 µg/mL) to each of the synthesized peptides was tested in a pepscan-based ELISA. The peptide arrays were incubated with primary sample solution (overnight at 4° C.). […]

| Value (binding intensity of His-tagged CD38), BET conformational peptide array [mAU] | Substance |
| --- | --- |
| 679 | 265 (CTTSHVKPQHPGLFYKDDVLFC) [compound 265] |
| 725 | 266 (CTSHVKPQHQPGFYKDDVLFYC) [compound 266] |
| 662 | 267 (CSHVKPQHQMPGYKDDVLFYNC) [compound 267] |
| 792 | 268 (CVKPQHQMLFPGDDVLFYNISC) [compound 268] |
| 641 | 269 (CKPQHQMLFYPGDVLFYNISSC) [compound 269] |

same assay, conditions: mimic type LOOP7 (single loop, mP2 CLIPS); sample with the highest signal

| Substance | Value (binding intensity of His-tagged CD38), LOOP7 conformational peptide array [mAU] |
| --- | --- |
| 206 (CVNITELFC) [compound 206] | 625 |
| 208 (CRISYDAQC) [compound 208] | 287 |
| 209 (CSYDAQFEC) [compound 209] | 570 |
| 210 (CYDAQFEVC) [compound 210] | 628 |
| 211 (CDAQFEVIC) [compound 211] | 429 |
| 213 (CPTEDVEYC) [compound 213] | 407 |
| 214 (CDVEYQSVC) [compound 214] | 556 |
| 215 (CDEVQISIC) [compound 215] | 378 |
| 220 (CGEDIVLQC) [compound 220] | 442 |
| 221 (CDIVLQSAC) [compound 221] | 389 |
| 223 (CQEGEYYSC) [compound 223] | 619 |
| 224 (CEGEYYSTC) [compound 224] | 650 |
| 225 (CGEYYSTAC) [compound 225] | 552 |
| 226 (CYYSTAFNC) [compound 226] | 477 |

Continued, values first:

| Value (binding intensity of His-tagged CD38), LOOP7 conformational peptide array [mAU] | Substance |
| --- | --- |
| 512 | 207 (CNITELFSC) [compound 207] |
| 402 | 212 (CNPTEDVEC) [compound 212] |
| 529 | 216 (CEVQISILC) [compound 216] |
| 416 | 217 (CVQISILSC) [compound 217] |
| 420 | 218 (CESGEDIVC) [compound 218] |
| 573 | 219 (CSGEDIVLC) [compound 219] |
| 385 | 222 (CKEQEGEYC) [compound 222] |

same assay, conditions: mimic type LOOP15 (single loop, mP2 CLIPS); sample with the highest signal

| Substance | Value (binding intensity of His-tagged CD38), LOOP15 conformational peptide array [mAU] |
| --- | --- |
| 227 (CHVKPQHQMLFYKDDVC) [compound 227] | 431 |
| 229 (CKPQHQMLFYKDDVLFC) [compound 229] | 467 |
| 231 (CHQMLFYKDDVLFYNIC) [compound 231] | 564 |
| 232 (CQMLFYKDDVLFYNISC) [compound 232] | 646 |
| 233 (CMLFYKDDVLFYNISSC) [compound 233] | 630 |
| 236 (CFYNISSMKSTESYFIC) [compound 236] | 552 |
| 237 (CYNISSMKSTESYFIPC) [compound 237] | 370 |
| 239 (CISSMKSTESYFIPEVC) [compound 239] | 499 |
| 240 (CSSMKSTESYFIPEVRC) [compound 240] | 343 |
| 241 (CMKSTESYFIPEVRIYC) [compound 241] | 325 |
| 242 (CKSTESYFIPEVRIYDC) [compound 242] | 528 |
| 243 (CSTESYFIPEVRIYDSC) [compound 243] | 660 |
| 244 (CTESYFIPEVRIYDSGC) [compound 244] | 465 |
| 245 (CESYFIPEVRIYDSGTC) [compound 245] | 373 |
| 246 (CYFIPEVRIYDSGTYKC) [compound 246] | 416 |
| 247 (CKREKNSRDQNFVILEC) [compound 247] | 516 |
| 248 (CREKNSRDQNFVILEFC) [compound 248] | 1073 |
| 249 (CEKNSRDQNFVILEFPC) [compound 249] | 566 |
| 256 (CTIQVTHLAQEFPEIIC) [compound 256] | 504 |
| 258 (CQVTHLAQEFPEIIIQC) [compound 258] | 617 |
| 259 (CVTHLAQEFPEIIIQKC) [compound 259] | 343 |
| 260 (CSSRISKVSSIVVNITC) [compound 260] | 287 |
| 261 (CRISKVSSIVVNITELC) [compound 261] | 567 |
| 262 (CISKVSSIVVNITELFC) [compound 262] | 795 |
| 263 (CSKVSSIVVNITELFSC) [compound 263] | 593 |
| 264 (CKVSSIVVNITELFSKC) [compound 264] | 211 |

Now from value to substance:

| Value (binding intensity of His-tagged CD38), LOOP15 conformational peptide array [mAU] | Substance |
| --- | --- |
| 411 | 228 (CVKPQHQMLFYKDDVLC) [compound 228] |
| 600 | 230 (CQHQMLFYKDDVLFYNC) [compound 230] |
| 497 | 234 (CLFYKDDVLFYNISSMC) [compound 234] |
| 371 | 235 (CVLFYNISSMKSTESYC) [compound 235] |
| 478 | 238 (CNISSMKSTESYFIPEC) [compound 238] |
| 624 | 250 (CKNSRDQNFVILEFPVC) [compound 250] |
| 634 | 251 (CDQNFVILEFPVEEQDC) [compound 251] |
| 729 | 252 (CQNFVILEFPVEEQDRC) [compound 252] |
| 524 | 253 (CNFVILEFPVEEQDRVC) [compound 253] |
| 550 | 254 (CFVILEFPVEEQDRVLC) [compound 254] |
| 320 | 255 (CSTIQVTHLAQEFPEIC) [compound 255] |
| 797 | 257 (CIQVTHLAQEFPEIIIC) [compound 257] |
